Reference: the supplement of paper PMC7125110
± gives the standard error. Fewer inactive variants are shown than the library holds.

B1: glmS ribozyme (parent)
chain: AUAAAAGCGCCAGAACUACAGAAAUGUAGUUGACGAGGAGGAGGUUUAUCGAAUUUUCGGCGGAUGCCUCCAAA

Assays:
Details in all cases: with glucosamine-6-phosphate
glucosamine-6-phosphate [1] = variants of: B1; test: self-cleavage kobs at 40 uM GlcN6P; higher = faster cleavage; RNA array
In short: (§1)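 E. coli RNA polymerase transcribed barcoded ribozyme variants in situ on sequenced MiSeq chips, which were tracked via a hybridised Cy3 probe at 37 °C. Tiles were imaged over ~14 h after glucosamine-6-phosphate (40 μM to 10 mM) in HEPES/KCl/Mg(OAc)2 buffer was flowed in. Normalised per-tile medians were fit to one- or two-exponential decays for kobs, and kcat and KM came from weighted Michaelis–Menten fits.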

glucosamine-6-phosphate [2] = variants of: B1; test: self-cleavage kobs at 160 uM GlcN6P; higher = faster cleavage; RNA array
In short: as §1

glucosamine-6-phosphate [3] = variants of: B1; test: self-cleavage kobs at 640 uM GlcN6P; higher = faster cleavage; RNA array
In short: as §1

glucosamine-6-phosphate [4] = variants of: B1; test: self-cleavage kobs at 2500 uM GlcN6P; higher = faster cleavage; RNA array
In short: as §1

glucosamine-6-phosphate [5] = variants of: B1; test: self-cleavage kobs at 10000 uM GlcN6P; higher = faster cleavage; RNA array
In short: as §1

| Variant | self-cleavage kobs at 40 uM GlcN6P (glucosamine-6-phosphate [1]) [s⁻¹] | self-cleavage kobs at 160 uM GlcN6P (glucosamine-6-phosphate [2]) [s⁻¹] | self-cleavage kobs at 640 uM GlcN6P (glucosamine-6-phosphate [3]) [s⁻¹] | self-cleavage kobs at 2500 uM GlcN6P (glucosamine-6-phosphate [4]) [s⁻¹] | self-cleavage kobs at 10000 uM GlcN6P (glucosamine-6-phosphate [5]) [s⁻¹] |
| --- | --- | --- | --- | --- | --- |
| G7C | < 1e-05 | < 1e-05 | < 1e-05 | < 1e-05 | < 1e-05 |
| G9A U55G | < 1e-05 | < 1e-05 | – | – | – |
| G37A A52U G59A G60A | < 1e-05 | – | – | – | – |
| A39U U54G C58U | < 1e-05 | – | – | – | – |
| U30C G62C | < 1e-05 | – | < 1e-05 | – | < 1e-05 |
| C34A G40C U46C | < 1e-05 | – | – | – | – |
| A14G U54C U69C | 0.000416 ± 9.9e-05 | – | 0.0011 ± 0.00044 | 0.000161 ± 5.8e-05 | 0.0047 ± 0.0013 |
| A39U C68U C71U | 0.000103 ± 3e-05 | – | – | – | – |
| G37C G41U G63C | < 1e-05 | – | – | – | – |
| G7A G32C | < 1e-05 | < 1e-05 | < 1e-05 | < 1e-05 | < 1e-05 |
| G7A G13U A14C A15U G35A U55C A64G C71A | < 1e-05 | – | – | – | < 1e-05 |
| G37A U54A | 7.84e-05 ± 1.8e-05 | – | – | – | 0.00478 ± 0.00082 |
| G7C G32U C34A G35C | < 1e-05 | – | – | – | – |
| A42G C61G | < 1e-05 | < 1e-05 | < 1e-05 | – | < 1e-05 |
| C11U U45G C50A | < 1e-05 | – | – | – | – |
| U30C G38U C61U | < 1e-05 | – | – | – | – |
| A14G G62U | < 1e-05 | – | – | < 1e-05 | < 1e-05 |
| A48U U49A | < 1e-05 | < 1e-05 | < 1e-05 | – | – |
| G13C G35C | < 1e-05 | < 1e-05 | – | < 1e-05 | < 1e-05 |
| G32A G63U | < 1e-05 | < 1e-05 | – | < 1e-05 | < 1e-05 |
| G44C U69G | < 1e-05 | – | – | < 1e-05 | < 1e-05 |
| G9C C34A A42U G43A | < 1e-05 | – | – | – | – |
| G9A A33C | < 1e-05 | < 1e-05 | < 1e-05 | < 1e-05 | < 1e-05 |
| G9C G32C | < 1e-05 | < 1e-05 | < 1e-05 | < 1e-05 | < 1e-05 |
| A53G C67A C70U | 0.000161 ± 2.5e-05 | – | – | – | 0.00035 ± 9e-05 |
